Test results from US11897966 (UTC THERAPEUTICS SHANGHAI, dated 2024).

B1: anti-mesothelin scFv-M13 (scFv)
chain: AIRMTQSPSSLSASVGDRVTITCRASQGISNSLAWYQQKPGKAPKLLLYAASRLESGVPSRFSGSGSGTDYTLTISSLQPEDFATYYCQQYYSTPFTFGPGTKLEIKGGGGSGGGGSGGGGSQVQLVQSGAEVKKPGSSVKVSCKTSADTFSANTINWVRQAPGHGLEWMGRIIPSLNIRDYAQEFQGRVTFTADESTNTVYMQLTSLRSEDTAVYYCARDPGSTWSPNQFFPHWGQGTLVTVSS
B2: anti-mesothelin scFv-M15 (scFv)
chain: DIQLTQSPSSLSASIGDRVTITCRASQGVNSALAWYQQKPGKPPNLLIYDASSLESGVPSRFSGSGSGRDFTLTISSLQPEDFATYYCQQFSSYPLTFGGGTKVDIKGGGGSGGGGSGGGGSQVQLVQSGAEVKKPGASVKVSCKASGYTFTSYYMHWVRQAPGQGLEWMGIINPSGGSTSYAQKFQGRVTMTRDTSTSTVYMELSSLRSEDTAVYYCARAQRGGSVYFDYWGQGTLVTVSS
B3: anti-mesothelin scFv-M7 (scFv)
chain: DIRLTQSPSSLSASLGDRVTITCRASQAISSALAWYQQKPGKAPRLLIYDASTLESGVPSRFSGSGSGTDFTLTISSLQPEDFATYYCQQADSFPLTFGGGTKLEIKGGGGSGGGGSGGGGSQVQLVQSGAEVKKSGESLKISCKGSGYGFGAYWIAWVRQMPGKGLEWMGIIYPGDSRVIYSPYFQGQVTISADKSISTAYLQWSSLKASDTAMYYCARFGGPKFATNWFDIWGQGTTVTVSS
B4: anti-mesothelin scFv-M6 (scFv)
chain: EIVMTQSPATLSLSPGERATLSCRASQSIGNSLAWYQQKPGQAPRLLIYDVSNRATGIPARFSGSGSGTDFTLTISSLEPEDFAVYYCQHRYSWPLTFGGGTKVEIKGGGGSGGGGSGGGGSQVQLVQSGGGLVKPGGSLRLSCAASGFTFSDYYMSWIRQAPGKGLEWVSYISSSGSTIYYADSVKGRFTISRDNAKNSLYLQMNSLRAEDTAVYYCARDGYRTHNWFDPWGQGTLVTVSS
B5: anti-mesothelin scFv-M8 (scFv)
chain: DIQLTQSPSSLSASVGDRVTITCRASQSISSSLNWYQQKPGKAPKLLIYAASSLQSGVPSRFSGSGSGTDFTLTISSLQPEDFATYSCQQSYSTPLTFGGGTKVEIKGGGGSGGGGSGGGGSQVHLVESGGGVVQPGRSLRVSCAASGFTFSGYAMYWVRQAPGKGLEYVSAITTNGGSTNYADSVKGRFTISRDNSKNTLYLQMSSLRAGDTAVYYCARGAPGYRGYYMDVWGKGTTVTVSS
B6: M18 (scFv)
chain 1: QVQLVQSGGGLVQPGGSLRLSCAASGFTFSSYWMHWVRQAPGKGLVWVSRINSDGSSTSYADSVKGRFTISRDNAKNTLYLQMNSLRAEDTAVYYCVRTGWVGSYYYYMDVWGKGTTVTVSS
chain 2: EIVLTQSPGTLSLSPGERATLSCRASQSVSSNYLAWYQQKPGQPPRLLIYDVSTRATGIPARFSGGGSGTDFTLTISSLEPEDFAVYYCQQRSNWPPWTFGQGTKVEIK
B7: anti-mesothelin scFv-M24 (scFv)
chain: QPVLTQPPSASGTPGQRVTISCSGSSSNIGSNYVYWYQQFPGTAPKLLIYMNNQRPSGVPDRFSGSKSGTSASLAISGLRSEDEADYYCAARDDSLSGYVTFGGGTKLTVLGGGGSGGGGSGGGGSEVHLVESGGGLVQPGGSLRLSCAASGFTFSSYAMSWVRQAPGKGLEWVSAISGSGGSTYYADSVKGRFTISRDNSKNTLYLQMNSLKTEDTAVYYCTRGVATFDYWGQGTLVTVSS
B8: anti-mesothelin scFv-M28 (scFv)
chain: QSALTQPPSASGSPGQSVTISCSGTSSDVGGYNFVSWYQHHPGKAPKLMIYEVSKRPSGVPDRFSGSKSGNTASLTVSGLQAEDEADYYCSSYAGRNNPYLFGTGTKLTVLGGGGSGGGGSGGGGSQLQLQESGAEVKKPGSSVKVSCKASGGTFSSYAISWVRQAPGQGLEWMGGIIPIFGTANYAQKFQGRVTITADESTSTAYMELSSLRSEDTAVYYCARDLGGYSYGHGLDYWGQGTLVTVSS
B9: anti-mesothelin scFv-M31 (scFv)
chain: QSALTQPPSASGSPGQSVTISCTGTSSDIGGYNSVSWYQQHPGKAPKLIIYGVSRRPSGVPDRFSGSKSANTASLTVSGLQAVDEADYYCSSYGGSNNLLFGGGTKLTVLGGGGSGGGGSGGGGSEVHLVESGGGLAQPGGSLRLSCAASGFSFSSSWMAWVRQAPGKGLEWVANIKQDGSSQYYVDSVKGRFTISRDNAKNSLSLQMNSLRAEDTAVYYCARDIWYSIDYWGQGTLVTVSS
B10: anti-mesothelin scFv-M22 (scFv)
chain: QSALTQPASVSGSPGQSITLSCTGTRRDIGGYEYVSWYQQHPGKAPKLLIFSVNNRPSGVSHRFSGSKSGNTASLTISGLQAEDEAAYFCSSYSSRDTLVLFGGGTKLTVLGGGGSGGGGSGGGGSQVQLVQSGAEVKKPGSSVKVSCKASGGTFSSYAISWVRQAPGQGLEWMGGIIPIFGTANYAQKFQGRVTITADESTSTAYMELSSLRSEDTAVYYCASGRSGSYGLYWGQGTLVTVSS
B11: anti-mesothelin scFv-M27 (scFv)
chain: EIVLTQSPGTLSLSPGERATLSCRASQPIVASHLAWYQHKPGQAPRLLIYGASTRAAGIPDRFSGSGSGTDFTLTISRLEPEDFAVYFCQQYGISPFTFGPGTKVDIKGGGGSGGGGSGGGGSQVQLVQSGAEVKKPGESLKISCQGSGYSFTDYWIGWVRQAPGQGLEWMGWITPNNGNTNYAPKFQGRVTLTTDTSTSTAYMELRSLTSDDTAVYFCARRGRNSSGYLYYYSMDVWGQGTTVTVSS
B12: anti-mesothelin scFv-M32 (scFv)
chain: DIRMTQSPSSLSASVGDRVTVTCQASEDINNSLNWYQQKPGKAPQLLIYDASDLETGVPSRFSGRGSGRDFTLTISSLQPEDFATYYCQQLNSYPLTFGGGTKLEIKGGGGSGGGGSGGGGSQVQLVQSGAEVKKPGASVKVSCKASGFTFIGYYLHWVRQAPGQGLEWMGIINPSGGRTSMAQKFQGRVSMTTDTSTGTVYLDLGRLGSDDTAVYYCARADNWNAGSMDVWGNGTTVTVSS
B13: anti-mesothelin scFv-M37 (scFv)
chain: DIVMTQTPSSLSASVGDRVTITCRASQGISNYLAWFQQKPGKAPKPLIYAASSLQSGVPSKFSGSGSGTDFTLTISNLQPEDFATYICQQYSSYPITFGQGTRLEIKGGGGSGGGGSGGGGSQLQLQESGPGLVKPSETLSLTCAVSGGSISPYYWTWIRQSPGKAMEWMGYIHYSGRTNYNPSLESRATFSVDTSKNQISLKLNSVTAADTAVYYCTKVGDPGLFDYWGPGTLVTVSS
B14: anti-mesothelin scFv-M20 (scFv)
chain: AIQMTQSPSSLSASVGNRVTITCRASQGISSAVAWYQQKPGKPPKLLISYASSLESGVPSRFSGSGSGTDFSLTISSLQPEDFATYFCQQFNSYPLTFGGGTKVEIKGGGGSGGGGSGGGGSQVQLVQSGAEVRKPGESLKISCKGSGYSFRDSWIAWVRQMPGQGLEWMGIIFPGDSNPIYSPSFQGQVTISADTSISTTFLQWRSLKASDSAIYYCARHAAWGAGWFDPWGQGTLVTVSS

biological target: T1, mesothelin-Fc recombinant protein (human, UniProt Q13421 296-580, limits assumed); test: FACS of T cells expressing the scFv CAR, stained with Mesothelin-Fc + PE-anti-IgG-Fc; Mock T cells of the same block: 0.63
T1 construct: also called mesothelin-Fc protein; human Mesothelin-Fc; not shown: Fc part
T1 sequence (Q13421 other isoform, or with tags, fused parts or gaps limits assumed): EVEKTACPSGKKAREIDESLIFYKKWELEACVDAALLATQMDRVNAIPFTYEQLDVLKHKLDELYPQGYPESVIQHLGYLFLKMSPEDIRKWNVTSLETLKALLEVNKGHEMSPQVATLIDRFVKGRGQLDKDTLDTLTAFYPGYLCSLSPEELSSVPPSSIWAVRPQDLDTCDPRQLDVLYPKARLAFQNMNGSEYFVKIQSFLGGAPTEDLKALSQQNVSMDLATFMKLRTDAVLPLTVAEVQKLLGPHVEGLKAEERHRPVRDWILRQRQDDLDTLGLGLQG

Compared with B1, B2 is lower in “number in the Mesothelin-Fc positive gate (percent of cells, unit not given)” value (shortened to “number … (percent of cells, unit not given)”): 71.1 for the first, 48.8 for the second.

First: B3
Second: B4
The “number … (percent of cells, unit not given)” value of the first is lower: 36.3 for the first, 83.4 for the second.

Compared with B5, B6 is lower in “number … (percent of cells, unit not given)” value: 80.8 for the first, 9.53 for the second.

biological target: T1, mesothelin-Fc recombinant protein; test: FACS of T cells expressing the scFv CAR, stained with Mesothelin-Fc + PE-anti-IgG-Fc; Mock T cells of the same block: 0.97

Compared with B7, B8 is lower in “number … (percent of cells, unit not given)” value: 93.6 for the first, 82.8 for the second.

First: B9
Second: B10
The “number … (percent of cells, unit not given)” value of the first is lower: 67.9 for the first, 80 for the second.

First: B11
Second: B12
The “number … (percent of cells, unit not given)” value of the first is lower: 76.3 for the first, 84.1 for the second.

Compared with B13, B14 is higher in “number … (percent of cells, unit not given)” value: 74.2 for the first, 75.6 for the second.
